Values of other authors as cited in PMC7300301.

Target: FcRn (Homo sapiens) (UniProt P55899)

Kd: 0.75 µM
Substance: palivizumab
